In doi:10.1101/2023.03.19.533240:

Biological target: MBP-DDX3X WT (UniProt O00571 1-662)
Test: time-resolved fluorescence anisotropy

Sequence of MBP-DDX3X WT (O00571 whole entry): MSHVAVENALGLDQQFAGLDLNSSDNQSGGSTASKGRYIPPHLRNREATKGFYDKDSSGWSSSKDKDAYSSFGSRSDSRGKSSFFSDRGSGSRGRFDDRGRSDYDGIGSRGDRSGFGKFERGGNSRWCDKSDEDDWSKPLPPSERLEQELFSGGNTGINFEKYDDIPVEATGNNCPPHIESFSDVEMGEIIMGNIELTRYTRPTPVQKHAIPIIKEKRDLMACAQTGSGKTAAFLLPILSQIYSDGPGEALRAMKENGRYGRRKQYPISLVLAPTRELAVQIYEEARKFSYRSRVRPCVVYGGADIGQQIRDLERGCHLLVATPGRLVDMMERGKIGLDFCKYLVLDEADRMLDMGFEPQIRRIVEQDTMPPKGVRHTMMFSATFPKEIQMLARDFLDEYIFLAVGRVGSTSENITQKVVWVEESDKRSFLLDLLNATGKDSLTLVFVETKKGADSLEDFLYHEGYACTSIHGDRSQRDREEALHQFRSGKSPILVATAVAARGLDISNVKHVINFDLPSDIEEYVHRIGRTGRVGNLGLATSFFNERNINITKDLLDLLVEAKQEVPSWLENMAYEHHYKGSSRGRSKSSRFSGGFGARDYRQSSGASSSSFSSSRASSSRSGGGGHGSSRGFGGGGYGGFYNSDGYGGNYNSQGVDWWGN

**Q.** Does UUUUUUUUUUUUUUUUUUUUUUUUCGGAGCGACGGCAGCGGU (ssRNA) [long strand 42-mer ssRNA] bind?
**A.** binds
